In article PMC13480645:

Experiments:
[1] = molecular target: SARS-CoV-2 S-2P protein (SARS-CoV-2 | bacteriophage T4)
S2P6 (human) = assay: BLI
Sequence of S2P6 (human) (VH, as listed by the source, chain 1 of 2): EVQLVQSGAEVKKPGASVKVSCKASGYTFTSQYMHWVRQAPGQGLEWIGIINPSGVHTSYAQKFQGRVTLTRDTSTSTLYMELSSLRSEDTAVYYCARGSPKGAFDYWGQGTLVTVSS
Sequence of S2P6 (human) (VL, as listed by the source, chain 2 of 2): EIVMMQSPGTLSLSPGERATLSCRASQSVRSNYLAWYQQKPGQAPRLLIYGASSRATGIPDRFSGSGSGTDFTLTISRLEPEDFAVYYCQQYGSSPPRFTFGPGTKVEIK

Sequence of S2P6 (antibody) (VH): as the sequence (VH, as listed by the source, chain 1 of 2) above
Sequence of S2P6 (antibody) (VL): as the sequence (VL, as listed by the source, chain 2 of 2) above

Substance | IC50 of neutralisation of SARS-CoV-2 pseudovirus (HeLa-hACE2 cells) [1] [µg/mL] | Kd (S2P6 (human)) [nM] | kon (S2P6 (human)) [M⁻¹ s⁻¹]
S2P6 (antibody) | 6.16 |  | 
SARS-CoV-2 S-2P protein (domain or fragment) |  | 1.3 | 559000
